In the nanobody polyreactivity screen of Harvey et al. (2022):

Assay: yeast display, Sf9 membrane polyspecificity reagent, FACS + sequencing; frameworks hold sequencing errors
How it was run: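 Sorting gates, low and high (top ~1%), were placed on anti-HA fluorescence to track expression and on streptavidin fluorescence to track reagent binding. A clone's polyreactivity label is taken from the gate it came out of. The reagent was 10% biotinylated, detergent-solubilized Sf9 membrane, applied for 1 hour at 4 °C to galactose-induced yeast display cells.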

Sequence	polyreactivity (PSR sort gate)
QDQLVESVGGLDQAGGSLPLSCDASGSIFPDYAMGWYRPAPGKERELVAAITSSGSTNNADSVKGLFTISRDNAKNTVYLQMNSLNPEDTAVYYCNAVVVQEESGYTRYDYWGQGTQVTVSS	low polyreactivity
QDQLVESVGGLVQAGGSLRLSCAASGRTIDPNAMGWYRQAPGKERELVAAITRTGVRTYYADSVKGRFTISRDNAKNTVYLQMNSLKPEDTAVYYCAASYSGRQDRYPHYDYWGQGTQVTVSS	low polyreactivity
QDQLVESVGGLVQAGGSLRLSCAASGSIFDQNAMGCSRHAPGKESELVAAITRGGSTKYADSVKGRFTISRDNAKNTVYLQMNSLKPEDTAVYYCARTDRRRYQPYEYWGPGTQVTVSS	low polyreactivity
QDQLVESVGGLVQAGVSLRLSSASSGRTFWAYAMGWYRQAHGKERELVAAISRNGGSTYYADSVKGRFTISRDHAKNTVYLQMNSLKPEDTAVYYCAAESRYYYELGYWGQGTQVTVSS	high polyreactivity
QDQLVETGGGLVQAGCSLRLSCAASGSIFTGYTMGWYRQAPGNEREFVAAIRATGGSTYYADSVKGRFTISRDNAKNTVYLQMNSLKPEDTAVFYCAVRSGGGSVRKRYGYWGQGTQVTVSS	high polyreactivity
QDQLVETGGGLVQAGGCLRLSCAASGRNFFGYAMGWYRQAPGTERELLAAITQSGGRTYYADSVKGRFTISRDNAKNTVYLLMNSQKPEDTAVYYCAATWLGTRNLVHITLYYWGQGTQVTVSS	low polyreactivity
QDQLVETGGGLVQAGGSLRISCADSGFTFGVNAMGWYREAPGKERELVAVITSGGNTYYADSVKGRFTISRDNAKNTDYCQMNSLKPEDTAVYYCAAYGRDSWDRDYWGQGTQVTVSS	low polyreactivity
QDQLVETGGGLVQAGGSLRLSCAASGIIFYPNAMGWYRQAPGKERELVAAISWRSGSTYYADSVKGRFTISRDNAKNTVYLQMNSLKPEDTAVYYCAADRRRSYIWRYDYWGQGTQVTVSS	low polyreactivity
QDQLVETGGGLVQARGSLRLSCAASGITFDKYAMGWYRQAPGKERELVAAISGSDGSTYYADSVKGRFTISRDNAKNTVYLQMNSLKQEDTSVYYCAAESEYAGTFEYDYWGQGTQVSVSS	low polyreactivity
QDQLVETVGVLDKAGGSLRLSCAASGRTFAIYAMAWYRQAPGKEREFVAASSWSGGDSYYADSVKGRFTISRDNAKNSVYLQMNSLKPEHTAVYYCAARDNDYEGRYLQYDLDYWGQGTQVTVST	low polyreactivity
QDQLVKSGGGLVQAGGSLLLSCAASGHTFSGYVMGWYRPAHGKERELVAAIRSGGSTYYADSVKGRFTISRDNAKKTVYLQMNSLKPEDTAVYYCAKSVTRYRTSAYGYWGQGTQVTVSS	high polyreactivity
QDQLVQSRGGLVQAGGSLRISSAASGGTYFGYAMGWKRQAPGKERELVAAIRWSDGRTYYADSVKGRFTISRDNAKYTVYLQMNSLNPEDTAVYYCNADDARLFDYWGQGTQVTVSS	low polyreactivity
QDQLVVSGGGLVQAGGSLRLSCAAYGFIVRSYDMGWYIQAPGKEREMVAAITSDVNSYYADSVKGRFTISRDNAKNTVYLQMNSLKPEDTAVYYFNADAVVYRDYQDYDYWGQGTQVTVSS	low polyreactivity
QDQLVYSGGGLVQAGGSLSISCASSVSTFGGYAMGWYRQAPGKERELVSAITWSAGSTYADSVKGRFTISRDNAKNTVYLQMTSLKPEDTAVYYCAAYPYVGYVSLSAYDYWGQGTQVTVSS	low polyreactivity
QDQPVESGGGLVQAGGRLRLSCAASGIICSGYAMGWYRQAAGKERELVAAISNDGTRTYYADSVKGRFTISRDNAKNTVYLQMNSLKPEDTAVYYCAAYSRLNVLGYDYWGQGTQVTVSS	high polyreactivity
QEQLHESGGGQVQAGGSLLLSCAASGNIIRYYYIGCYRQAPGKEPELVAAITYGTSTNYADSVKGRFTISRDNAKNTVYLQMNSLKPEDTAVYYCAVDVNYGDPLDNWGQGTQVTVSS	high polyreactivity
QEQLQESGGCLVQAGCSLRLSCAPSGTISDSGLMGWYRQPQGKERELVAGISSGGITNYADSVKGRLTISRDNAKNTVYLQMNSLKPEDTAVYYCAADSPVSVTADDGYWGQGTQVTVSS	low polyreactivity
QEQLQESGGGLVQAGGSLRLSCAASGSIFHLHIMCRYRQAPGKERESVAAISYGTSTYYADSVKGRFTICRDNAKNTVYLQMNSPKPDDTAVYYCAALFLVSKHHHYWGEGTQVTVSS	low polyreactivity
QEQLQESGGGQVQAGGSLLLSCAASGNIIRYYYMGWYRQAPGKERELVAAITYGTSTNYADSVKGRFTISRDNAKNTVYLQMNSLKPEDTAVYYFAVDVNYGDPLDNWGQGTQVTVSC	high polyreactivity
QEQLVDSGGGLVQAGGSLRLSCAASVRIFGRYVMGWYRQAPGKERELVAAITSRDDSTYYADSVKGRFTISRDNAKNTVYLQMNSLKPEDTAVYYCAATWGRGYDYCGQGTQVTVSS	high polyreactivity
QEQLVESGGGLDQAGGSLRLSCAASGSTFYAYAMGWSRQATGKETELVAAISSDGTNYADSVKGRFTISRDNAKNTVYLQMNCLKPEDTAVYYCAADLLLTSSQDNDYWGQGTQVTVSS	low polyreactivity
QEQLVESGGGLVQAGGSLRISCAASGFIFGFYAMGWYRQAPGKERELVAAISWSAGSTYFADSVMGRFTISRDNAKNTVYLQMYSLKPEDTAVYYCAAYFDFRDDAVTYDYWGQGTQVTVSS	low polyreactivity

Sequence	polyreactivity (PSR sort gate)
QEQLVESGGGLVQAGGSLRLSCAASGRIFPYYAMGWYRPAPGKERELVASITARGGSTYYADSVKGRFTISRDNAKNTVYLQMNSLKPEDTAVYYCATRGYAWSSDKFGYWGQGTQVTVSS	high polyreactivity
QEQLVESGGGLVQAGGSLRLSCAASGSIFATYAMGWNRQAPVKERELVAAITSSDGSTNYADSVKGRFTISRDNAKNTVYLLMNSLKPEDTAVYYCAADGTVRSLGRYYHWGQGTQVTVSS	low polyreactivity
QEQLVESGGGLVQAGGSLRLSCAAYGSTYNSYVMGWNRQAPVKERELVAAISTSGGRTYYADSVKGRFTISRDNAKNTVYLKMISLKPEDTAVYYCNRVFLKYYESTHWRDYWGQGTKVTVSS	high polyreactivity
QEQLVESGGGLVQAGGSLRLSGAASGGIFGRYAMGGYRQAPGKEMELVAAISKRGGSTYYADSVKGRFTISRDNAKNTVYLQMNSLKPEETAFYYCNAAQSVELGYDYWGQGTQVTVSS	high polyreactivity
QEQMQEGGGGLVQAGGSLRLICASSGYNFNGDWMGWNRQAPGKERELVATINYGATTNYADSVKGRFTISRDNAKNTVYLQMNSLKPEDTAVYYCAVGGHGAQLYVYWGQGTQVTVSN	high polyreactivity
QFHLVESGGGLVQAGGSLRLSCAAAGYTYGYYTMGWYRQAPGKERELVAAIDSGGRTNYADSVKGRFTISRDNAKNTVYLQMNSRKPEDTAVYYCAAESPLYWVDDFESGWRYYYWGQGTQVTVSS	low polyreactivity
QFHLVETGGGLVQAGGSLRLSCAASGSTFSDYAMGSYRQAPGKERELVAGITETGTTTYYADSVNGRFTISRDNAKNTDYLQINSLKPEDTAVYYCAAFLVTYYYGTGYYSYDYWGQGTQVTVSS	low polyreactivity
QFKLVESGGGLVQAGGSLRLSCAASGFTFRLVKAMRWYRQAPGKERELVAGINSGDITYYADSVKGRFTISRDNAKNTVYLQMNSLKPEDTAVYYCAARVVYGYGHYDYWGQGTQVTVSS	low polyreactivity
QFQIEESGGGLVQAGGSLRLSCAASGNTFYWNAMGWYRQAPGKDRELVAAISTTGVSTYYADSVKGRFTISRDNAKITVYLQMNSLKPEDTAVYYCAAEIIGYHTIYDYWGQGTQVTVSS	low polyreactivity
QFQLGESGGGLVQAGGSLRLSCAASGSTFSGYTKGWYRQARGKEREFVAAISSRGGSTYYADSVKGRFTISRDNAKNTVYLQMYRLNPEDTAVYYCAAKVCARVDGRQFRMEYWGQGTQVTVSS	high polyreactivity
QFQLVDSVGGLDQAGGSLRLSSDASGLTLIGNAMGWYRQAPVKERELVASITIGGTTYADSVKGRFTISRDNAKNTVYLQMNSLKPEDTEVYYCAADFSSFSIDTGYDYWGQGTQVTVSS	low polyreactivity
QFQLVESAGGLFQAVGSHRLSCAASGRTFTQYAMGWYRQAPGKERELVAAISWRGGSTYYADSVKGRFTISRDNAKNTVYLQMNSLKPEDTAVYYCAKRYFRGYPLYDYWGQGTQVTVSS	high polyreactivity
QFQLVESCGGLVQAGGTLRLSCAASGFIFDIYERGWYRQAPGKERELVAAITWNSGSTHYADSVKGRFTISRDNAKKTVYLQMNSLNPDDTAVYYCAAVEVTYAYYPYDYCGQGTQVTVSS	low polyreactivity
QFQLVESGGCLVQAGGSLRLSCAASGFIFLQYAMGWYRQAPGKETELGAAITSGGGTNYEDSVKGRFTISRDNAKNTVYLPMNSLKPEDTAGYNCAARTWPWVLGATQDDYWGQGTQVTVSS	low polyreactivity
QFQLVESGGCLVQAGGSLRLSCAASGRTFGWYAMGWYRQAPGKERELVAAISTRGTRTYYADSVKGRFTISRDNAKITDYLQMYSLKPEDTAVYYCNAKRRAVTTAHGIPEEDYWGQGTKVTVSS	high polyreactivity
QFQLVESGGGFVQAGGSLRLSCAASGSIFLYNDMGWYRQAPGKDRELLPAITSDGSTNYADSVKGRFTISRDNAKNTVYLQMNSLKPEDTAVYYCAADALWFYLNWYYGGTAYGYWGQGTQVTVSS	low polyreactivity
QFQLVESGGGLDQAGGSLRISCAASGSTFSYNAIGWYRQAPGKERELVAAITSRGGSTRYADSVKGRFTISRDNAKNTVYLQMNSLNPEDTAVYYCARPYSYYPYSTVNYWGQGTQVTVSS	high polyreactivity
QFQLVESGGGLLQAGGSLRLSCAASGFTFSYNAKGWYRKAPGKERELVAAISSSGGSTYYADSVKGRFTISRDNAKNTVYLQMNILKPEDPSVYYCAVPYLTLYGRSYDYWGQGTQVTVSS	high polyreactivity
QFQLVESGGGLLQAGGSLRLSCAASGLTFNQKAMGWYTQAPGKDRELVAAISRRGGSTYYADSVKGRFTFSRENAKNTVYLQLNSLKPEDTAVYYCNTRGKSGLWWYYYWGQGTQVTVSS	high polyreactivity
QFQLVESGGGLVHAGGSLRLSCAATGSTLPGYAMGWYRQAPGKERELVAAITSRGGTTYYADSVKGRFTISCDNAKKTVYLQMNSLKPEDTAVYYCAAYTSYASDYWGQGTQVTVSS	high polyreactivity
QFQLVESGGGLVKAGGSLRLSSAASGGTFGYYTMGWYRQAPGKERELVAAISSGGGTDYADSVKGRFTISRDNAKNTVYFQMTSLKPEDTALYYCATVSDYPWRYDYWVQGTQVTVSS	low polyreactivity
